Measurements reported in patent US20070134724.

Legend:
[1] = target: tau, shortest isoform (tau352)
tau, shortest isoform (tau352), sequence (chain, as listed by the source): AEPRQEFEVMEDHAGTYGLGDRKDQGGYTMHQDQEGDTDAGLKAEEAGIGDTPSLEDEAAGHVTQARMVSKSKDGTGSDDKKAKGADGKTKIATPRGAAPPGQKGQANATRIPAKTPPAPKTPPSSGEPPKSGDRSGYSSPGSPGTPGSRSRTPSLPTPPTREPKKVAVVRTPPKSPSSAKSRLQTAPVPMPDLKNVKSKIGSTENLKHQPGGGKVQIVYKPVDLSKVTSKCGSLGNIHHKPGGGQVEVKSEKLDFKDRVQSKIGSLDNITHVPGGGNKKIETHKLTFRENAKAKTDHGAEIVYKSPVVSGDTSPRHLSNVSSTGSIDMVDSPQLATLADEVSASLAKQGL

Row | Protein | phosphorylation of Y-to-F tau mutants co-transfected with abl2 (western blot with anti-pY) (tau) | phosphorylation of tau at Y310 (western blot with YP21) (tau) | phosphorylation of the long (4R) isoform co-transfected with abl2 (western blot, sandwich ELISA) (tau) | tyrosine phosphorylation of tau with and without Gleevec (western blot, ELISA) (tau) | phosphorylation of the short (3R) isoform co-transfected with abl2 (western blot, sandwich ELISA) [1] | tyrosine phosphorylation of tau in the presence of Gleevec (western blot, ELISA) (tau)
1 | abl2 tyrosine kinase (protein) GQQVGRVGEAPGLQQPQPRGIRGSSAARPSGRRRDPAGRTTETGFNIFTQHDHFASCVEDGFEGDKTGGSSPEALHRPYGCDVEPQALNEAIRWSSKENLLGATESDPNLFVALYDFVASGDNTLSITKGEKLRVLGYNQNGEWSEVRSKNGQGWVPSNYITPVNSLEKHSWYHGPVSRSAAEYLLSSLINGSFLVRESESSPGQLSISLRYEGRVYHYRINTTADGKVYVTAESRFSTLAELVHHHSTVADGLVTTLHYPAPKCNKPTVYGVSPIHDKWEMERTDITMKHKLGGGQYGEVYVGVWKKYSLTVAVKTLKEDTMEVEEFLKEAAVMKEIKHPNLVQLLGVCTLEPPFYIVTEYMPYGNLLDYLRECNREEVTAVVLLYMATQISSAMEYLEKKNFIHRDLAARNCLVGENHVVKVADFGLSRLMTGDTYTAHAGAKFPIKWTAPESLAYNTFSIKSDVWAFGVLLWEIATYGMSPYPGIDLSQVYDLLEKGYRMEQPEGCPPKVYELMRACWKWSPADRPSFAETHQAFETMFHDSSISEEVAEELGRAASSSSVVPYLPRLPILPSKTRTLKKQVENKENIEGAQDATENSASSLAPGFIRGAQASSGSPALPRKQRDKSPSSLLEDAKETCFTRDRKGGFFSSFMKKRNAPTPPKRSSSFREMENQPHKKYELTGNFSSVASLQHADGFSFTPAQQEANLVPPKCYGGSFAQRNLCNDDGGGGGGSGTAGGGWSGITGFFTPRLIKKTLGLRAGKPTASDDTSKPFPRSNSTSSMSSGLPEQDRMAMTLPRNCQRSKLQLERTVSTSSQPEENVDRANDMLPKKSEESAAPSRERPKAKLLPRGATALPLRTPSGDLAITEKDPPGVGVAGVAAAPKGKEKNGGARLGMAGVPEDGEQPGWPSPAKAAPVLPTTHNHKVPVLISPTLKHTPADVQLIGTDSQGNKFKLLSEHQVTSSGDKDRPRRVKPKCAPPPPPVMRLLQHPSICSDPTEEPTALTAGQSTSETQEGGKKAALGAVPISGKAGRPVMPPPQVPLPTSSISPAKMANGTAGTKVALRKTKQAAEKISADKISKEALLECADLLSSALTEPVPNSQLVDTGHQLLDYCSGYVDCIPQTRNKFAFREAVSKLELSLQELQVSSAAAGVPGTNPVLNNLLSCVQEISDVVQR | Abl2 strongly phosphorylates Y394, with lower levels of phosphorylation at Y197 and Y310 | demonstrating phosphorylation of tau at Y310 | Y394 was the predominant site of abl2 phosphorylation | Abl1 or abl2 transfected into the cell is what directly phosphorylates tau | Y394 was the predominant site of abl2 phosphorylation | 
2 | Gleevec-resistant abl2 (T3611 form) (protein) GQQVGRVGEAPGLQQPQPRGIRGSSAARPSGRRRDPAGRTTETGFNIFTQHDHFASCVEDGFEGDKTGGSSPEALHRPYGCDVEPQALNEAIRWSSKENLLGATESDPNLFVALYDFVASGDNTLSITKGEKLRVLGYNQNGEWSEVRSKNGQGWVPSNYITPVNSLEKHSWYHGPVSRSAAEYLLSSLINGSFLVRESESSPGQLSISLRYEGRVYHYRINTTADGKVYVTAESRFSTLAELVHHHSTVADGLVTTLHYPAPKCNKPTVYGVSPIHDKWEMERTDITMKHKLGGGQYGEVYVGVWKKYSLTVAVKTLKEDTMEVEEFLKEAAVMKEIKHPNLVQLLGVCTLEPPFYIVIEYMPYGNLLDYLRECNREEVTAVVLLYMATQISSAMEYLEKKNFIHRDLAARNCLVGENHVVKVADFGLSRLMTGDTYTAHAGAKFPIKWTAPESLAYNTFSIKSDVWAFGVLLWEIATYGMSPYPGIDLSQVYDLLEKGYRMEQPEGCPPKVYELMRACWKWSPADRPSFAETHQAFETMFHDSSISEEVAEELGRAASSSSVVPYLPRLPILPSKTRTLKKQVENKENIEGAQDATENSASSLAPGFIRGAQASSGSPALPRKQRDKSPSSLLEDAKETCFTRDRKGGFFSSFMKKRNAPTPPKRSSSFREMENQPHKKYELTGNFSSVASLQHADGFSFTPAQQEANLVPPKCYGGSFAQRNLCNDDGGGGGGSGTAGGGWSGITGFFTPRLIKKTLGLRAGKPTASDDTSKPFPRSNSTSSMSSGLPEQDRMAMTLPRNCQRSKLQLERTVSTSSQPEENVDRANDMLPKKSEESAAPSRERPKAKLLPRGATALPLRTPSGDLAITEKDPPGVGVAGVAAAPKGKEKNGGARLGMAGVPEDGEQPGWPSPAKAAPVLPTTHNHKVPVLISPTLKHTPADVQLIGTDSQGNKFKLLSEHQVTSSGDKDRPRRVKPKCAPPPPPVMRLLQHPSICSDPTEEPTALTAGQSTSETQEGGKKAALGAVPISGKAGRPVMPPPQVPLPTSSISPAKMANGTAGTKVALRKTKQAAEKISADKISKEALLECADLLSSALTEPVPNSQLVDTGHQLLDYCSGYVDCIPQTRNKFAFREAVSKLELSLQELQVSSAAAGVPGTNPVLNNLLSCVQEISDVVQR |  |  |  |  |  | In the presence of Gleevec, both forms could phosphorylate tau
